Results reported in the DeepSol protein solubility set.

Test: soluble on expression in E. coli; label from the status in PepcDB or PDB records

Row | Sequence | soluble on expression in E. coli
1 | MASDYEAVNTNPYGVSDGELGPLKYGARFMNMQQRVIPIGSPSLTTGPGNDLQNTDLISSGNYIGYFGNNNNWGFNNEANWNFTDSRMNYAYQNFYSQIFLPWNEIYEIAKDSDSPSEQAILEIANIVRNIAWLRATDVFGPIAYNSAGDGSIAPKFDSQEVVYRSMLADLSKSVELLNTISYSVMAQYDLIYNGNVQNWVKLANSLMLRIVVRVHFIDETLAKEYITKALDPKNGGVIEDISSEAKIKSSDKMPLLNSMLASVNEYNETRMGATIWGYLDGYKDPRLSAYFTEGTYGSGSWAQTGYFPVAPTNSKSKSETSYSAKFASRPKVDSNSPLYWFRASETYFLKAEAALYNLIGGDPKTFYEQGINISFQEQGVSGVATYLSGTGKPTGLTGSNYKYGTYNHDLSIGNTSPKWDDYTGNLSKQEEQLQKIITQKYLALYPNAVEAWTEYRRTGFPYLMKPMDEAAPGRIGASIEDCRVPERFRFAPTAYNSNPNMAEIPTLLGGGDIGATKLWWVRSNRPKQPNQ | soluble
2 | MSRPPSRPRMMCARVLLLLSVTGLVLACETGPSSGDYEQAVMQDRVQRDMQMREKESVLPPGRREAFRGLNFYEVDPAYRYTVPLRRFETPDTVMIPESTGDLRPQQRIGEVTVPLPEGPEELVVFRGEGDTPRGRLWIPFADSTNRHATYKGGRYVDLTSTDSDSVVVDFNRAYNPTCAYNPDFACPLPPPENRIAVPVAAGEKRPTFGG | soluble
3 | AHHHHHHGSGWWYTTNLRSRSNDMDKPEEILNEKDIIKRAYKFGFYVGLHGHTDWFGWVAEVKKKIYEEAKHLGVYEEVKKAYIKGKKAGRVEREKRIHLGLMKQTTSEIPEKIKIVSIERNRGSIASLNFPKIEDMPKTIKKPRFFRLPKILRGGEE | not soluble
4 | NSAAIWGEGDVSALQSDTESGAYIEESSMVAADPLADYLSKPKLEALIASTKKQMLAAAKELDFLEAARLRDEAARLEKKLEQLTA | not soluble
5 | MVESTRVRSKRLSFSGKKTLSSFMQVNIASLRQSGKLRTSETYRATLNSFMKFMDGKDVLLSNMDAELMMGYETYLKAQGASMNTVSFYMRILRATYNRAVDKGVIRQRFPFKHVYTGVEKTVKRAISFKVIRQLKEMDLSHSQSMEFARDMFMFSFYTRGMSFVDMAFLKKTDLNNGMLTYRRKKTGQLLSIRWEKCMQDIVDKYPGNYSTYLLPIIIHIRKDERLQYKNSICLVNRRLKEIGKKLGLVHPLTMYVARHSWASVARGKHIPLSVISEGMGHDSEKTTLIYLAALDTTVIDKANMVVLREFL | not soluble
6 | MSDVPHLRFPEFSGEWEEHTLSEYLEFKNGLNPDAKRIGSGLPFISVMDILSEGVINYDNIRGKVNATEKEIECFGVKDGDLLFQRSSETLEDVGRANVYMDNRTAIYGGFVIRGRKIGNYDPLFFKYLLATPLARKRTCRMGAGAQHFNIGQEGLSKISLYFPSIEEQRKIAEFLSLIDERIATQNKIIEDLKKLKSAISLNVLHSDKWEQFKIKDIAQIGRGRVISSIEIGQQKSPTYPVYSSQTSNDGIMGYLDDYMFEGEYISWTTDGANAGTVFYRNGKFNCTNVCGLLKLRKEFDTHFVSLVLAEATKKYVSINLANPKLMNNTMGNIQIRLPKLEEQKRISIVFRVLQRLWTVHNSLLTEYTKQEQYLLSQMFILEHHHHHH | not soluble
7 | MATQKEKPSSNSFKWFSTKTLKLNLSFQNRRRSPKSNSSSTLNSPRSNSDDNNNIKSHQASKEELRQVFSHFDSDGDGKISAFELRHYFGSVGEYISHEAAQEAINEVDTDADGSLGFEDFVGLMTRRDLYGDGEVDGDGELKTAFEMFEVEKGSGCITPKGLQKMLVKLGESRTYGECEAMIKFYDIDGNGILDFHEFRQMMTV | soluble
8 | GHMNAYLSDQPVRLSPLRDEQGNQPRFGLLLEPGRPGMHVGELPAQWLKGLARSHHLLLLRGFAAFADAESLTRYCHDFGEVMLWPFGAVLELVEQEGAEDHIFANNYVPLHWDGMYLETVPEFQVFHCVDAPGDSDGGRTTFSSTPAALQLADSSELELWRRASGRYQRSAAHYSSRSAAPIVERHPRREFPILRFCEPPVEGDASFINPSEFHYDGIAPEQRGELLASLRRCLYHPQAHYAHRWRSDDLVIADNLTLLHGREAFAHRAPRHLRRVHIHAEPALRNPHLQRD | soluble
9 | MGSDKIHHHHHHMHGNADVKFGNESVFDLARGSSTNDELLNICMIRSGFKKFEEEKEIQNTDGFFIADTSVYIKLGNRLGYLTKDRLLASKSVYNELSERTKLTQMGKEIIVFYLGMYSYRHLHKSPPVSEYNKSGDIPLIEETRKIKENIPEKVTLITADRQLKQRARTLGVNVIFLNTLKSDSGNMSELLLCASNRREYMEKYDYARRDLTITINDKEVIKIESDPTKEGFSRIKTLNKEFNYAKLIEKLYEMI | not soluble
10 | MGLSVMIMLMRSVKIKYLNLASLSNDRSADTSAAPHSPLRTRLVHPSLAFCPDVPSGKCRFAKFYGIGREPHRIRGADVLLFEGLKRVR | not soluble
11 | MEGIIDKENERVRRFFALLDDMEKKVERLARDNRPPFNGERFLTDRELSGMLKISRRCLQDYRDQGRIPYIQLGGKILYRQSDIERLLEENYHPALV | not soluble
12 | AHHHHHHASAKWVCKICGYIYDEDAGDPDNGISPGTKFEELPDDWVCPICGAPKSEFEKLEDGSRFIDSNVFLYAMIKPKGNTSKEILKKKEKAKKILLRVENGEDVVTTLIHLSEIANILEAKVNLTTAVRFLENLLLAENVKILPVSVEEYLKAVLISKEKGISVNDALAYLKMKELNIKEIYTFDRHFQNLDVEVIQD | soluble
13 | MAAIHINHDVFNKYHTNGKLRLTTGYVQEAIENNGYPGHDGIVQVLKGKVEQGEQLGHAFTFRIRISDGVFQYNALMSADIDDQIKREVEHLVEGTIIALTKFEIYDQGEGAKNCFLIKGYKILSRYHQVLTSPEVKPRSHSGKPDEHKGYRPNIIIEDVWPEAEGMAADYQENMANPPAAKAPKREFGEEASYNRAAAPEATRARAVPPPARRTASNTERGVMPIAMVTPYVSNFKIHGMVSRKEEIRTFPAKNTKVFNFEITDSNGDTIRCTAFNEVAESLYTTITENLSYYLSGGSVKQANKKFNNTGHDYEITLRSDSIIEAGGELLAAPKLILKRVKLGEIAGYAGQLIDVLVVVEKMDPEATEFTSKAGKSLIKREMELIDESGALVRLTLWGDEATKALVDDYVQKVIAFKGVIPREFNGGFSLGTGSATRIISVPEIAGVSELYDWYANVKPTTEVKMMSQAAGGSNEAPRTIAGLQEMQFGKDSDKGDYATVKAMITRVNPTNALYRGCASEGCQKKLVGENGDYRCEKCNKNMNKFKWLYMMQFELSDETGQVYVTAFGDSAAKIVGKSAAELGELHDESPDEYNAIFERLQFVPKMWRLRCKMDSYNEEVRQKMTVYGVDDVNQDKYIENLKQMIEQMQQMSDY | soluble
14 | MESNNNEKKKVARQSSSFRLRSPSLNALRLQRIFDLFDKNGDGFITVEELSQALTRLGLNADLSDLKSTVESYIQPGNTGLNFDDFSSLHKTLDDSFFGGACGGGENEDDPSSAAENESDLAEAFKVFDENGDGFISARELQTVLKKLGLPEGGEMERVEKMIVSVDRNQDGRVDFFEFKNMMRTVVIPSS | soluble
15 | MSLTTMVPTVMNTPTRIEAGRQKFLIFDAPSQENLPAYIEEMRAYEVTDLVRTCERTYDDKTVLASGIRPHELIFPDGEAPPDDVIDEWLTLCNAVSQQRGAIAIHCVAGLGRAPVLVAIALIEKGMDPMDAIMFIRERRKGAINRRQLQFLKGYKRRSNYKEGHHHHHH | soluble
16 | MSLTTIRVFDTTLRDGEQMPGVSLPLEYKIRIAKQLDKLGVDVIEAGFPSATKGEFESVKEISSLSLNAEICGLARIVKEDIDAAINANVDMVHIFVPTSRIQIEHTVKMSKEEIIEKSVECVEYIKSHGVKCMFSAMDATRTEVEYLKQIFKAVENAKVDIVNVPDTVGVATPFKFYELIKQLREHLKVPIDVHCHNDFGLAVANTYAAVMAGANEVQVTVNGIGERAGNADLAQVVMILHAIEGIKTNIKTEHLFETSKLVERLTGVKMPPNHPIVGENAFSHESGIHAHGVLKEYSEGHHHHHH | soluble
